Experiment: yeast display, Sf9 membrane polyspecificity reagent, FACS + sequencing; frameworks hold sequencing errors
Procedure, shortened: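 A nanobody's polyreactivity label depends on the gate it was sorted from. Yeast display cells were stained with 10% biotinylated, detergent-solubilized Sf9 membrane reagent for 1 hour at 4 °C, enriched on streptavidin microbeads and sorted by FACS. The low and high (top ~1%) gates were set on anti-HA fluorescence for expression and streptavidin fluorescence for reagent binding.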

Row | Sequence | polyreactivity (PSR sort gate)
1 | QVQLVESGGGLVQAGGSLRLSCAASGRIFADYGMGWYRQAPGKERELVAAITDRGGTTYYADSVKGRFTISRDNAKNTVYLQMNSLKPEDTAVYYCAADTPDAPDYSGFYYWGQGTQVTVSS | low polyreactivity
2 | QVQLVESGGGLVQAGGSLRLSCAASGSTFHRYAMGWYRQAPGKERELVATINLNTGSTYADSVKGRFTISRDNAKNTVYLQMNSLKPEDTAVYYCAAYGRWPFTWYNYWGQGTQVTVSS | low polyreactivity
3 | QVQLVDSRGGLVQAGGSLRLSCAASGSTYLRNVMGSYRQAPGKERELVAAISSRGGSTHYADSVKGRFTISRDNAKNTVYLQMNSMKPEDTAVYYSNAERTAAQYVRAAYDFWGEGTQVTVSS | low polyreactivity
4 | QVQLVESGGGLVQAGGSLRLSCAASGSTFRFYAMGWYRQEPGKERELVAAITSSGGSTYYADSVKGRFTISRDNAKNTVYLQMNSLKPEDTAVYYCNAYPNPVSYELDYWGQGTQVTVSS | low polyreactivity
5 | QVQLVESGGGLVQAGGSLRLSCAASGSTIGLNARGWYRQAPGKERELVAAITRSDITNYADSVKGRFTISRDNAKNTVYLQMNRLKPEDTEVYYCAAESPLYWVDDFESGWRYYYSGQGTQVTVSS | low polyreactivity
6 | QDQLVVSGGGLVHAGGSLRLSCAASGRIFHAYGMGWYRQAPGQERELVAAITWRGVSTYYADSVKGRFTISRDNAKNTVYLQMNSLKPEDTAVYYCAARVTPGRNGGGYWGQGTQVTVSS | high polyreactivity
7 | QVQLVESGGGLVQAGGSLRLSCAASGSIFPRYAMGWYRQAPGKERELVAAITGSGSSTYYADSVKGRFTISRDNAKNTVYLQMNSLKPEDTAVYYCAARKARPPCPHPFDYYWGEGTQVTVSS | low polyreactivity
8 | QVQLVESGGGLVQAVGSLRLSCAASGLTFYPNAMGWYRQAPGKERQFVDSISISGRTYYADSVKGRFTISRDNAKNTVYLQMNSLKPEDTAVYYCAARYVRSGLYRKYDYWGQGTQVTVSS | high polyreactivity
9 | QVQLVESGGGLVQAGGSLRLSCAASGRTFDRYDMGWYRQAPGKERELVATISSSGGSTYYADSVKGRFTISRDNAKNTVYLQMNSLKPEDTAVYYCAADPSGDYWGQGTQVTVSS | low polyreactivity
10 | QVQLVESGGGLVQAGGSLRLSCAASGFIFVLNVMGWYRQAPGKERELVAAITWRGTSTYYADSVKGRFTISRDNAKNTVYLQMNSLKPEDTAVYYCAVKGFSTRSYREFDYWGQGTQVTVSS | low polyreactivity
11 | QVQLVESGGGLVQAGGSLRLSCAASGLILGRYAMGWYRQAPGKERELVAAITRGGRTYYADSVKGRFTISRDNAKNTVYLQMNSLKPEDPAVYYCAATFGYTRNDYDYWGHGTQVTVSS | high polyreactivity
12 | QVQLVESGVGLVQAGGSLRLSCAASGRIFYRNAMGWYRQAPGKERELVAAISYSGGRTYYADSVKGRFTISRDNAKNTVYLQMNSLKPEDTAVYYCAARYAWGYVDPGDYWGQGTQVTVSS | high polyreactivity
13 | QVQLVESGGGLVQAGGSLRLSCAASGGIFPDYAMGSYRQAPGKERELVAVISDSGGSTYYADSVKGRFTISRDNAKNTVYLQMNSLKPEDTAVYYCAAETEWYYGYYEYWGQGTQVTVSS | high polyreactivity
14 | QVQLVESGGGLVQAGCSLRFSSAASGRISNYPMGWYRQPPGKERELVAAITWSGGSTYADSVKGRFTISRDNAKNTVYLQMNSLKPEDTAVYYWAARGTRYWDYRYYAYNYWGQGTQVTVSS | high polyreactivity
15 | QVQLVESGGGLVHAGGSLRLSCAAYGSIFYSYAMGWYRQAPGKERELVAAITSVGNTNYADSVKGRFTISRDNAKNTVYLQMNSLKPEDTAVYYYWGQGTQVTVSS | low polyreactivity
16 | QVQLVESGGGLVQAGGSLRLSCAASGIIFGFYAMGWYRQAPGKERELVAAITSGGRTDYADSVKGRFTISRDNAKNTVYLQMNSLKPEDTAVYYCAAEFTYYGARWGYLGDLDYWGQGTQVTVSS | high polyreactivity
17 | QDQLVESGGGLVQAGGSLRLSCAASGSIFTDYAMGWYRQAPAKERELVAAITSSGGSTYYADSVKGRFTISRDYAKNTVYLQMKSLKTEDTAVYYCAADRITIYDYWGQGTQVTVSS | low polyreactivity
18 | QVQLVESGGGLVQAGGSLRLSCAASGRTFVPYAMGWYRQAPGKEREFVAAISSRVGSTYYADSVKGRFTISRDNAKNTVYLQMNSLKQEDTAVYYCNAPFKPAGFYSAWKYDYWGQGTQVTVSS | low polyreactivity
19 | QVQLVESGGGLVQAGGSLRLSCAASGLILYFNARGWYRQAPGKERELVADISSSGSSTYYADSVKGRFTISRDNAKNTVYLQMNSLKPEDTAVYYCAAGYYGEYWRSWYDYWGQGTQVTVSS | low polyreactivity
20 | QVQLVESRGGLVQAGGSLRLSCAASGFTFDIYAMGWYRQAPGKERELVAAINYSGARTYYADSVKGRFTISRDNAKNTVYLQMNSLNPEDTAVYYCNRAARIKYDYWGQGTQVTVSS | high polyreactivity
21 | QDQLVESGGGLVQAGGSLRLSCAASVSTFVNYAMGWYRQAPGKEMELVAAMSWSGGSTYYADSVKGRFTISRDNAKNTVYLQMNSLKPEDTAVYYCAVYAYWRFRTYYYWGQGTQVTVSA | high polyreactivity
22 | QVQGVESGGGLVQAGGSLRLSCAAAGFTFGYYAMGWYRQAPGTERELVAGISWGGTRTYYADSVKGRFTISRDNAKNTVYLQLNSLKPEDTAVYYCAAESILGYDYWGQGTQVTVSS | high polyreactivity

Row | Sequence | polyreactivity (PSR sort gate)
23 | QVQLVESGGGLVQAGGSLRLSCAASGFTFHNNVMGWYRQAPGKERELVATISKSGGSTYYADSVKGRFTISRDNAKNTVYLQMNSLKPEDTAVYYCAALYPYQYVRGGYWGQGTQVTVSS | high polyreactivity
24 | QVQLVESGGGLVQAGGSLRLSCAASGRTFRGYAMGWYRQAPGKERELGAAITSSGGRTYYADSVKGRFTISRDNAKNTVYLQMNSLKPVDTAVYYCAKDYYSPRGYDYWGQGTQVTVSS | high polyreactivity
25 | QVQLVESGGGLVQAGGSLRLSCAASGIIFRWYAMGWYRQAPGKERELVAGITSTTGTTYYADSVKGRFTISRDNAKNTVYLQMNSLKPEDSAVYYCAADYYWYTTAGVVDSFEYWGQGTQVTVSS | low polyreactivity
26 | QVQLVESGGGLVQAGGSLRLSCAASGITFRYYAMGWYRQAPGKERELVAVISTSGGSTYYADSVKGRFTISRDNAKNTVYLQMNSLKPEDTAVYYCAVVWPYSERYYYWGQGTQVTVSS | high polyreactivity
27 | QVQLVESGGGLVQAGGSLSLSCAASGRTFVRYAMGWYRQAPGKERELVAAISRNAGRTYYADSVKGRFTISRDNAKNTVYLQMNSLKPEDTAVYYCAAPGRNLGTGFYYWGQGTQVTVSS | high polyreactivity
28 | QVQLVESGGGLVQAGGSLRLSCAASGRTFYYYAMGWYRQAPGKERELVAAISSSGGSTYYADSVKGRFTISRDNAKNTVYLQMNSLKPEDTAVYYCNARYGGYRARYTYNYWGQGTQVTVSS | high polyreactivity
29 | QVQLVESGGGLVQAGGSLRLSCAASGFTFWYYVMGWYRQAPGKERELVAAITSSGDSTYYADSVKGRFTISRDNAKNTVYLQMNSLKPEDTAVYYCAAQRYPFERDYWGQCTQVTVSS | high polyreactivity
30 | QVQLVDSGGGLVQAGGSLRLSCAASGSIFRYYAMGWYRQAPGKEREFVAAINTNDAGTYYADSVKGRFTISRDNAKNTVYLQMNSLKPEDTAVYYCAADTGYPFWYDYWGQGTQVTVSS | high polyreactivity
31 | QVQLVESGGGLVQAGGSLRLSCAASGSIFIFNTMGWYRQAPGKETELVASISSSGSTYYADSVKGRFTISRANAKNTVYLQMNSLKPEDTAVYYCAADAEDRPSWPGNSEYEYWGQGTQVTVSS | low polyreactivity
32 | QVQLVESGGGLVQAGGSLRLSCAASGRIFYYYDMGWYRQAPGKERELVATMSGIGGSTYYADSVKGLFTISRDHAKNTVYLQMNSLKPEDTAVYYCNADYPTSYPLFKTGFDYWGQGTQVTVSS | low polyreactivity
33 | QVQLVESGGGLVQAGGSLRLSCAASGFIFRSYVMGWYRQAPGKERELVAAITRSGVRTYYADSVKGRFTISRDNAKNTVYLQMNSLKPEDTAVYYCNADFSATRYWPGNYWGQGTQVTVSS | high polyreactivity
34 | QVQLVESGGGLVQAGGSLRLSCAASGRIFLVYAMGWYRQAPGKERELVAAISWRGGRTYYADSVKGRFTISRDNAKNTFYLQMNSLKPEDTAVYYCAAASKYSQFEYDYWGQGTQVTVSS | high polyreactivity
35 | QVQLVESGGGLVQAGGSLRLSCAASGSTFEQYAMGWYRQAPGKERELVAAINRGGSTYYADSVKGRFTISRDNAKNTVYLQMKSLKPEDTAVYYCAVYAFVRYRSRYGYWGQGTQVTVSS | high polyreactivity
36 | QVQLVESGGGLVQAGGSLRLSCAASGFTFGNNGMGWYRQAPGKERELVASISGGGDSTYYADSVKGRFTISRDNAKYTVYLQMNSLKREDTAVYYCAADYRQEPGYTGYYYWGQGTQVTVSS | low polyreactivity
37 | QVQLVESGGGLVQAGGSLRLSCAASGGTLKYYAMGWYRQAPGKEREVVATISSRGGSTYYADSVKGRFTISRDNAKNTVYLQMNSLKPEDTAVYYCARRYWVQSRYPEMDYWGQGTQVTVSS | high polyreactivity
38 | QVQLVESGGGLVQAGGSLRLSCAASGRTFYFNGMGWYRQAPGKERELVATITASGTITYYADSVKGRFTISRDNAKNTVYLQLNSLKPEDTAVYYCAARQRGYYYSRRYDYWGQGTQVTVTS | high polyreactivity
39 | QVQLVESGGGLVQAGGSLRISCAASGSTFSYYAMGWYRQAPGKERELVAAISQTGGTTYYADSVKGRFTISRDNAKNTVYLQMNSLTPEDTAVYYSNAARPGGHYWGQGTQVTVSS | low polyreactivity
40 | QFQLVETGGGLDQAGGSLRLSCAASGTTFGVYAMGWYRQAPGKERELVAVITSRGGSTYYADSVKGRFTISRDNAKNTVYLQMNSLIPEDTAVYYCNVDSAYRRPPYDYWGQGTQVTVSS | high polyreactivity
41 | QVQLVESGGRLVQAGGRLRLSSAATGLIFYANAMGWYRQAPGKQREFVADISNSGGSTYYADSVKGRFTISRDNAKNTVYLQMNSLKPEDTAVYYCNRVAYKRGYGVRYGGDYDYSGQGTQVTVSS | low polyreactivity
42 | QVQLVESGGGLVQAGGSLRLSCAASGSTFSGNALGWYRQPPGKERELVAAITSSGGSTDYADSVKGRFTISRDNAKNSVYLQMNSLKPEDTAVYYCNTVFHYFNSGAYNFGYWGQGTQVTVSS | high polyreactivity
43 | QVQLVESGGGLFQAGGSLRLSCAASGIIFYVNDMGWYRQAPGKERELVADISGGTSTNYADSVKGRFTISRDNAKNTVYLQMNSLKPEDTAVYYCATAFIVQFPGSDYWGQGTQVTVSS | low polyreactivity
